From patent publication US20180086804A1 (COMMISSARIAT A L ENERGIE ATOMIQUE ET AUX ENERGIES …, published 2018) come the findings set out here.

Assay [1] addresses T1, HLA-DP401 (HLA-DPB1*04:01) (human, UniProt P20036 29-222).
T1 construct: mature; purified from homozygous EBV-transformed lymphoblastoid cells with antibody B7/21
Nature of the assay: competition ELISA vs biotin-Oxy 271-287.

Assay [2] addresses T2, HLA-DP402 (HLA-DPB1*04:02) (human, UniProt P20036 29-222).
T2 construct: mature; purified from homozygous EBV-transformed lymphoblastoid cells with antibody B7/21
The assay is described as follows: competition ELISA vs biotin-Oxy 271-287. In general terms: In an ELISA, binding on a coated surface is turned into a signal by an enzyme label.

In assay [3] the target is T3, HLA-DR3 (HLA-DRB1*03:01) (human).
T3 construct: mature; purified from homozygous EBV-transformed lymphoblastoid cells with antibody L243
Nature of the assay: competition ELISA vs biotin-MT 2-16.

Assay [4] has as its target T4, HLA-DRB3 (HLA-DRB3*01:01) (human).
T4 construct: mature; purified from homozygous EBV-transformed lymphoblastoid cells with antibody L243
The assay is described as follows: competition ELISA vs biotin-LOL 191-210.

For assay [5], the target named is T5, HLA-DR11 (HLA-DRB1*11:01) (human).
T5 construct: mature; purified from homozygous EBV-transformed lymphoblastoid cells with antibody L243
The assay is described as follows: competition ELISA vs biotin-HA 306-318.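 Also: HLA and competitor incubated 24 to 72 h, maximal signal taken from wells lacking competitor, background from wells lacking HLA molecule.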

Assay [6] deals with T6, HLA-DR4 (HLA-DRB1*04:01) (human).
T6 construct: mature; purified from homozygous EBV-transformed lymphoblastoid cells with antibody L243
Nature of the assay: competition ELISA vs biotin-HA 306-318.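 Also: HLA and competitor incubated 24 to 72 h, maximal signal taken from wells lacking competitor, background from wells lacking HLA molecule.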

Assay [7] addresses T7, HLA-DRB5 (HLA-DRB5*01:01) (human).
T7 construct: mature; purified from homozygous EBV-transformed lymphoblastoid cells with antibody L243
The assay is described as follows: competition ELISA vs biotin-HA 306-318.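 Also: HLA and competitor incubated 24 to 72 h, maximal signal taken from wells lacking competitor, background from wells lacking HLA molecule.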

For assay [8], the target named is T8, HLA-DR1 (HLA-DRB1*01:01) (human).
T8 construct: mature; class II HLA molecule purified from homozygous EBV-transformed lymphoblastoid cells with antibody L243
Nature of the assay: competition ELISA vs biotin-HA 306-318.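 Also: HLA and competitor incubated 24 to 72 h, maximal signal taken from wells lacking competitor, background from wells lacking HLA molecule.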

For assay [9], the target named is T9, HLA-DR13 (HLA-DRB1*13:01) (human).
T9 construct: mature; purified from homozygous EBV-transformed lymphoblastoid cells with antibody L243
The assay is described as follows: competition ELISA vs biotin-B1 21-36.

The target of assay [10] is T10, HLA-DR15 (HLA-DRB1*15:01) (human).
T10 construct: mature; purified from homozygous EBV-transformed lymphoblastoid cells with antibody L243
The assay is described as follows: competition ELISA vs biotin-A3 152-166.

Assay [11] has as its target T11, HLA-DR7 (HLA-DRB1*07:01) (human).
T11 construct: mature; purified from homozygous EBV-transformed lymphoblastoid cells with antibody L243
The assay is described as follows: competition ELISA vs biotin-YKL.

Assay [12] has as its target T4, HLA-DRB3 (HLA-DRB3*01:01). Nature of the assay: competition ELISA vs biotin-LOL 191-210. This is another data set of the same source.
Assay [13] deals with T11, HLA-DR7 (HLA-DRB1*07:01). The assay is described as follows: competition ELISA vs biotin-YKL. The source holds these as a separate data set.
For assay [14], the target named is T5, HLA-DR11 (HLA-DRB1*11:01). Nature of the assay: competition ELISA vs biotin-HA 306-318. The source holds these as a separate data set.
For assay [15], the target named is T6, HLA-DR4 (HLA-DRB1*04:01). The assay is described as follows: competition ELISA vs biotin-HA 306-318. The source holds these as a separate data set.
Assay [16] addresses T7, HLA-DRB5 (HLA-DRB5*01:01). The assay is described as follows: competition ELISA vs biotin-HA 306-318. The source holds these as a separate data set.
Assay [17] concerns the target T8, HLA-DR1 (HLA-DRB1*01:01). The assay is described as follows: competition ELISA vs biotin-HA 306-318. This is another data set of the same source.
For assay [18], the target named is T10, HLA-DR15 (HLA-DRB1*15:01). Nature of the assay: competition ELISA vs biotin-A3 152-166. This is another data set of the same source.
Assay [19] has as its target T3, HLA-DR3 (HLA-DRB1*03:01). The assay is described as follows: competition ELISA vs biotin-MT 2-16. This is another data set of the same source.
Assay [20] addresses T12, HLA-DRB4 (HLA-DRB4*01:01) (human).
T12 construct: mature; purified from homozygous EBV-transformed lymphoblastoid cells with antibody L243
Nature of the assay: competition ELISA vs biotin-E2/E168.

In assay [21] the target is T1, HLA-DP401 (HLA-DPB1*04:01). The assay is described as follows: competition ELISA vs biotin-Oxy 271-287. The source holds these as a separate data set.
The target in assay [22] is T2, HLA-DP402 (HLA-DPB1*04:02). The assay is described as follows: competition ELISA vs biotin-Oxy 271-287. This is another data set of the same source.
For assay [23], the target named is T12, HLA-DRB4 (HLA-DRB4*01:01). Nature of the assay: competition ELISA vs biotin-E2/E168. The source holds these as a separate data set.
Assay [24] has as its target T9, HLA-DR13 (HLA-DRB1*13:01). The assay is described as follows: competition ELISA vs biotin-B1 21-36. The source holds these as a separate data set.

Like-named read-outs stand apart in the source and are kept apart here. No end group written: not given here.

As for TAMFIASKYEEMYPP-NH2 [CCNB1 250-264], the relative affinity in assay [1] was found to be 0.1; in assay [2], 1; with HLA-DR3 (HLA-DRB1*03:01) [3], 4; in assay [4], 34; in [5], 6; with HLA-DR4 (HLA-DRB1*04:01) [6], 70. Moreover, the relative affinity came out at 82 in assay [7]; 22 with HLA-DR1 (HLA-DRB1*01:01) [8]; 3 in assay [9]; 9 in assay [10]; 4 in the assay with HLA-DR7 (HLA-DRB1*07:01) [11].

As to PEIGDFAFVTDNTYT-NH2 [CCNB1 264-278], the relative affinity is 19 in [12]; 86 with HLA-DR7 (HLA-DRB1*07:01) [13]; 1670 in assay [14]; 2 with HLA-DR4 (HLA-DRB1*04:01) [15]; 61 in [16]; 7000 with HLA-DR1 (HLA-DRB1*01:01) [17]. Further, the relative affinity in assay [18] was determined as 300; in the assay with HLA-DR3 (HLA-DRB1*03:01) [19], 85.

In the case of DWLVQVQMKFRLLQE-NH2 [CCNB1 207-221], the relative affinity in [2] is 171; in the assay with HLA-DR3 (HLA-DRB1*03:01) [3], 0.5; in assay [4], 160; in assay [5], 0.4; in assay [7], 5; with HLA-DR1 (HLA-DRB1*01:01) [8], 38. Also, the relative affinity stood at 49 in assay [20], 1 in [9], 7 in assay [10] and 7 with HLA-DR7 (HLA-DRB1*07:01) [11].

RPLPLHFLRRASKIG-NH2 [CCNB1 299-313]: the relative affinity in [5] is 0.1; with HLA-DR4 (HLA-DRB1*04:01) [6] it was 624; in assay [7], 26; with HLA-DR1 (HLA-DRB1*01:01) [8], 63; in assay [20], 13; in assay [9], 0.2. In addition, the relative affinity in assay [10] is 200; in the assay with HLA-DR7 (HLA-DRB1*07:01) [11] it was 35.

As for GDFAFVTDNTYTKHQ-NH2 [CCNB1 267-281], the relative affinity with HLA-DR3 (HLA-DRB1*03:01) [3] was found to be 0.2; in assay [4], 38; in assay [5], 1330; with HLA-DR4 (HLA-DRB1*04:01) [6], 1; in assay [7], 24; in the assay with HLA-DR1 (HLA-DRB1*01:01) [8], 1500. For the same molecule, the relative affinity came out at 62 in [9], 86 in assay [10] and 22 in the assay with HLA-DR7 (HLA-DRB1*07:01) [11].

In the case of QAFSDVILAVNDVDA-NH2 [CCNB1 144-158], the relative affinity in [12] is 18; with HLA-DR4 (HLA-DRB1*04:01) [15] it was 12; in the assay with HLA-DR1 (HLA-DRB1*01:01) [17], 1730; in assay [18], 46; in the assay with HLA-DR3 (HLA-DRB1*03:01) [19], 8; in assay [21], 51.

On to LSYTEESLLPVMQHL-NH2 [CCNB1 369-383], for which the relative affinity in assay [12] stood at 72; with HLA-DR7 (HLA-DRB1*07:01) [13], 91; in assay [14], 45; with HLA-DR4 (HLA-DRB1*04:01) [15], 58; in assay [16], 1380; in the assay with HLA-DR1 (HLA-DRB1*01:01) [17] it was 212. In addition, the relative affinity in assay [18] was 350; in [21], 4; in [22], 1.

EKLSPEPILVDTASP-NH2 [CCNB1 113-127]: the relative affinity in assay [12] amounted to 151; with HLA-DR4 (HLA-DRB1*04:01) [15] it was 55; with HLA-DR1 (HLA-DRB1*01:01) [17], 6000; in [23] it was 231; with HLA-DR3 (HLA-DRB1*03:01) [19], 6; in assay [21], 72. This molecule came in with a relative affinity in assay [22] of 71.

As for PNLCSEYVKDIYAYL-NH2 [CCNB1 164-178], the relative affinity in [12] was 53; with HLA-DR7 (HLA-DRB1*07:01) [13], 73; in the assay with HLA-DR4 (HLA-DRB1*04:01) [15] it was 527; in [16] it was 500; with HLA-DR1 (HLA-DRB1*01:01) [17] it was 2830; in [23], 40. Also, the relative affinity was determined as 28 in [18], 274 in assay [21] and 625 in [22].

FAFVTDNTYTKHQIR-NH2 [CCNB1 269-283]: the relative affinity in assay [12] came to 34; with HLA-DR7 (HLA-DRB1*07:01) [13], 577; in assay [14], 2190; with HLA-DR4 (HLA-DRB1*04:01) [15] it was 0.4; in [16], 42; in the assay with HLA-DR1 (HLA-DRB1*01:01) [17], 1340. In addition, the relative affinity in assay [18] was 17; with HLA-DR3 (HLA-DRB1*03:01) [19], 0.1.

For ETMYMTVSIIDRFMQ-NH2 [CCNB1 221-235], the relative affinity worked out at 59 in [1]; 68 in [2]; 0.5 in the assay with HLA-DR3 (HLA-DRB1*03:01) [3]; 22 in assay [4]; 1 in assay [5]; 37 with HLA-DR4 (HLA-DRB1*04:01) [6]. Besides, the relative affinity in assay [7] was 1; with HLA-DR1 (HLA-DRB1*01:01) [8], 89; in assay [20], 7; in assay [9] it was 59; in assay [10] it was 0.3; with HLA-DR7 (HLA-DRB1*07:01) [11], 1.

As to REVTGNMRAILIDWL-NH2 [CCNB1 195-209], the relative affinity in assay [12] came to 20; in [24], 45; in assay [14] it was 1180; with HLA-DR4 (HLA-DRB1*04:01) [15], 260; in assay [16], 1410; in the assay with HLA-DR1 (HLA-DRB1*01:01) [17] it was 55. The relative affinity in assay [23] was 23; in assay [18] it was 30; with HLA-DR3 (HLA-DRB1*03:01) [19] it was 1; in assay [21], 725; in [22] it was 791.

In the case of VQMKFRLLQETMYMT-NH2 [CCNB1 212-226], the relative affinity in assay [1] was 110; in assay [2], 9; with HLA-DR3 (HLA-DRB1*03:01) [3], 1; in assay [4], 34; in [5], 5; in the assay with HLA-DR4 (HLA-DRB1*04:01) [6], 2. In addition, the relative affinity in assay [7] was determined as 2; in the assay with HLA-DR1 (HLA-DRB1*01:01) [8], 1; in [20], 683; in assay [9], 1; in assay [10], 46; with HLA-DR7 (HLA-DRB1*07:01) [11] it was 40.
